Broadly, the pKd is the negative decadic logarithm of the Kd, by convention in mol/L.

pKd: −log10 of the molar value.

This note sets out measurements from US10830762.

The target in the assay is human CRBN (amino acids 40-442) in complex with full length human DDB1 (human) (UniProt Q96SW2). The experiment in a line: SPR (Biacore T200): GST-GSPT1 domains 2 and 3 captured by anti-GST antibody, CRBN-DDB1 as analyte, 10 uM Compound C; data not shown. Background: In SPR one partner is held on a chip, and binding of the other changes the refractive index at the surface.
human CRBN (amino acids 40-442) in complex with full length human DDB1 (human), sequence (Q96SW2 40-442, chain 1 of 2): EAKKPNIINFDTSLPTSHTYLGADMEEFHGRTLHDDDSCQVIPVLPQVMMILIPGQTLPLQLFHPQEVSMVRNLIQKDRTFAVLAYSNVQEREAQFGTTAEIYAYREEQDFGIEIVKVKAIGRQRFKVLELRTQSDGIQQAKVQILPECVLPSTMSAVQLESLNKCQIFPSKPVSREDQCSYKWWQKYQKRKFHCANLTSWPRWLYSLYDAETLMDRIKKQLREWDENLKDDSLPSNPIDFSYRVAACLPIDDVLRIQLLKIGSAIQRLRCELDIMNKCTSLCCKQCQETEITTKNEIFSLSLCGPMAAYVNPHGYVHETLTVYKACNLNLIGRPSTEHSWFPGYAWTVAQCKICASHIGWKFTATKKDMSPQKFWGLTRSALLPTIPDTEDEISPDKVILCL
human CRBN (amino acids 40-442) in complex with full length human DDB1 (human), sequence (Q16531 2-1140, chain 2 of 2, further chain): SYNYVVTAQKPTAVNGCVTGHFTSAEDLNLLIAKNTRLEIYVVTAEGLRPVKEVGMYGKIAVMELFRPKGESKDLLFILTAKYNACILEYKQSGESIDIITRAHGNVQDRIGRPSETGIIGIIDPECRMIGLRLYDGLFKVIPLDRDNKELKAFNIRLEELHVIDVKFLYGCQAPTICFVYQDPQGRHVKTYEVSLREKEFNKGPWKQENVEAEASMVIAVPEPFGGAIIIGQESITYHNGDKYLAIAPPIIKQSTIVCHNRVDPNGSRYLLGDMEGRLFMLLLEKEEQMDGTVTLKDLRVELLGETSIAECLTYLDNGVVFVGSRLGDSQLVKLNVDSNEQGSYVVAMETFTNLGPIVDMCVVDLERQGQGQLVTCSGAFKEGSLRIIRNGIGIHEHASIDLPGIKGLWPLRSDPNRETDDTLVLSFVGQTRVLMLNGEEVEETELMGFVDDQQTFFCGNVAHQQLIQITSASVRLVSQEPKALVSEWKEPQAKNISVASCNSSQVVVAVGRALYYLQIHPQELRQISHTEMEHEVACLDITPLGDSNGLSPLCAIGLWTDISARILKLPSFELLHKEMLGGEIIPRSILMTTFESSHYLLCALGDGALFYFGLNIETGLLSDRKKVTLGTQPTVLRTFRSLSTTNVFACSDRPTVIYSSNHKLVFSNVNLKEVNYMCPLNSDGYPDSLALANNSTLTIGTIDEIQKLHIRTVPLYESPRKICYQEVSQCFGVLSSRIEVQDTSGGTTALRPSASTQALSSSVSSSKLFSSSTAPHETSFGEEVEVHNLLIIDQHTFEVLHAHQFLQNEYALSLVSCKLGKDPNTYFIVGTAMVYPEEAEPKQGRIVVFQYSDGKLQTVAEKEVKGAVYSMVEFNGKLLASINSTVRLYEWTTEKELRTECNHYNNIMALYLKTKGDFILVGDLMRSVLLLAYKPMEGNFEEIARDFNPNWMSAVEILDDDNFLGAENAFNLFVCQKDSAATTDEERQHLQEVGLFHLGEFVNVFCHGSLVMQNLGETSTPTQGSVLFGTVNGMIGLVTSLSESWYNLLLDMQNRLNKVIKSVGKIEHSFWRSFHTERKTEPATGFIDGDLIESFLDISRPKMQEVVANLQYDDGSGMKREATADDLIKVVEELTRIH

Take “GST-GSPT1-domain 2 and 3 (from UniProt P15170 437-633)”: the pKd was 6.40.
